B1: library; numbered along this chain (parent)
chain: MRKPRAAVGSGHRKQAASQEGRQKHAKNNSQAKPSACDGLARQPEEVVLQASVSSYHLFRDVAEVTAFRGSLLSWYDQEKRDLPWRRRAEDEMDLDRRAYAVWVSEVMLQQTQVATVINYYTGWMQKWPTLQDLASASLEEVNQLWAGLGYYSRGRRLQEGARKVVEELGGHMPRTAETLQQLLPGVGRYTAGAIASIAFGQATGVVDGNVARVLCRVRAIGADPSSTLVSQQLWGLAQQLVDPARPGDFNQAAMELGATVCTPQRPLCSQCPVESLCRARQRVEQEQLLASGSLSGSPDVEECAPNTGQCHLCLPPSEPWDQTLGVVNFPRKASRKPPREESSATCVLEQPGALGAQILLVQRPNSGLLAGLWEFPSVTWEPSEQLQRKALLQELQRWAGPLPATHLRHLGEVVHTFSHIKLTYQVYGLALEGQTPVTTVPPGARWLTQEEFHTAAVSTAMKKVFRVYQGQQPGTCMGSKRSQVSSPCSRKKPRMGQQVLDNFFRSHISTDAHSLNSAAQ

Variants of: B1
Experiment: 8OG:A repair function score (normalized; synonymous = 0, nonsense = -1) (normalized log-likelihood score); higher = more repair activity (WT-like)
Settings: with 8OG:A DNA repair reporter (GFP) in HEK-293 MUTYH KO cells
Method in brief: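 After 72 h, viable mCherry+ cells were split into GFP+ (repair) and GFP− bins in three replicates per tile. These cells were MUTYH knockout HEK-293 cells holding lentiviral MUTYH cDNA NNN codon-scan libraries, kept in 10 pg/ml doxycycline and co-transfected with mCherry plus an 8OG:A GFP repair reporter. Sequencing of tile amplicons gave per-tile Rosace fitness scores, normalized into a repair function score anchored on synonymous and nonsense distributions. Synonymous medians were fixed at 0, nonsense at -1, and variants under 300 counts per million at the start were removed.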
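Also: cells sorted at 72 h after reporter transfection.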

8OG:A repair function score of substitutions, site by site:
A199: C 0.000923 | N -0.885 | L -1.01 | V -0.155 | H -0.874
R189: V -0.148 | A -0.136 | N -0.421 | Q -0.208 | S -0.0964 | G -0.299 | M -0.341 | T -0.184 | C -0.258 | H -0.228 | F -0.222 | D -0.22 | I -0.335 | W -0.343 | Y -0.336 | L -0.316 | P 0.136 | K -0.0681 | E -0.385
I198: Y -0.792 | K -1.06 | L -0.391 | A -0.548 | H -0.963 | P -0.841 | S -0.757 | T -0.36 | C -0.474 | E -0.552 | G -1.05 | D -1.1 | Q -0.466 | R -0.575 | V -0.254 | N -0.562 | M -0.189 | F -0.447
A196: H -0.673 | V -0.382 | Q -0.897 | D -0.616 | E -0.674 | R -0.93 | M -0.507 | K -0.993 | C -0.233 | I -0.703 | P -1.11 | G -0.309 | L -0.68 | N -0.697 | T -0.342 | Y -0.723 | F -0.939 | W -1.18 | S 0.00714
S197: G -0.747 | T -0.695 | K -1 | N -1.17 | P -1.3 | L -1.13 | W -1.37 | R -1.21 | E -0.903 | A -0.271 | V -0.973 | H -1.22 | D -1.04 | I -0.959 | C -0.73 | F -0.956 | Q -1.14 | Y -0.898
L184: D -1.16 | M -0.281 | K -0.925 | E -1.09 | H -1.05 | I -0.0822 | Y -0.855 | V -0.238 | T -0.62 | P -1.21 | S -0.911 | F -0.304 | W -1.13 | Q -0.899 | G -0.899 | R -1.2 | N -0.987
F200: M 0.0616 | V -0.545 | N -0.427 | E -0.847 | D -0.891 | I -0.505 | P -1.02 | W -0.182 | H -0.308 | C -0.266 | S -0.54 | G -0.582 | T -0.739 | K -0.874 | Q -0.502 | R -0.97 | A -0.576 | L -0.252 | Y 0.0681
P185: E -0.168 | T -0.242 | R -0.264 | S -0.221 | W -0.553 | G -0.141 | K -0.102 | L -0.344 | A -0.225 | D -0.333 | I -0.275 | Q -0.197 | V -0.299 | N -0.12 | F -0.285 | M -0.282 | H -0.43 | Y -0.363 | C -0.242
Y190: I -0.823 | S -0.22 | G -0.381 | M -0.762 | Q -0.567 | D -0.858 | H -0.198 | N -0.443 | K -1.27 | F -0.574 | A -0.38 | W -0.479 | V -0.566 | E -0.808 | R -1.06 | C -0.373 | T -0.419 | P -0.905 | L -0.851
Q202: A 0.00201 | G -0.395 | M -0.234 | R -0.0857 | P -0.931 | D 0.0238 | C 0.0136 | I -0.0774 | L -0.163 | N -0.274 | F -0.471 | K 0.0342 | H -0.0825 | E -0.0729

— the supplement of paper PMC11908140
